From publication PMC10682658, “Revisiting bacterial cytolethal distending toxin structure and function” (Frontiers in Cellular and Infection Microbiology, 2023) come the findings set out here.

Where only a bound is given, the exact number is not on record here.

Test [1] has as its target T1, NTA-labeled Cj-CdtA (polyhistidine-tagged Cj-CdtA labelled with NTA fluorescent dye) (Campylobacter jejuni, UniProt A1VXG4 20-268, NTA - Atto 647 N dye on the polyhistidine-tagged subunit).
T1 construct: source: recombinant, generated and purified as previously described (Eshraghi et al., 2010)
T1 sequence: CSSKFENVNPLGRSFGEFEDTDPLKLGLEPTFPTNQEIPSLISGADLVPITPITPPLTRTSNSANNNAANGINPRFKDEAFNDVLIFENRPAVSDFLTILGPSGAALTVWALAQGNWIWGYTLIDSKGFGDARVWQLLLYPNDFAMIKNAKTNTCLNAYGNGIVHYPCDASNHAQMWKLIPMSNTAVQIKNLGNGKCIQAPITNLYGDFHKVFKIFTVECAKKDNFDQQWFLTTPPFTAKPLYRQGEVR
Kind of test: MST; NTA dye-labeled polyhistidine-tagged subunit (0.1 μM) with unlabeled subunit without polyhistidine tag (0.02/0.04-20 μM), 1 h at 37°C, read at 37°C; Monolith NT.115; fraction bound fit to log [Cj-CDT subunit] vs response; KD of A + B* called apparent. The note with it: both partners purified.

For test [2], the target named is T2, NTA-labeled Cj-CdtB (polyhistidine-tagged Cj-CdtB labelled with NTA fluorescent dye) (Campylobacter jejuni, UniProt Q0PC57 1-265, NTA - Atto 647 N dye on the polyhistidine-tagged subunit).
T2 construct: source: recombinant, generated and purified as previously described (Eshraghi et al., 2010)
The test is described as above. The note with it: both partners purified.

B1: unlabeled Cj-CdtC with the polyhistidine tag removed (natural protein)
chain: TPTGDLKDFTEMVSIRSLETGIFLSAFRDTSKDPIDQNWNIKEIVLSDELKQKDKLADELPFGYVQFTNPKESDLCLAILEDGTFGAKSCQDDLKDGKLETVFSIMPTTTSAVQIRSLVLESDECIVTFFNPNIPIQKRFGIAPCTLDPIFFAEVNELMIITPPLTAATPLE
notes: source: recombinant, generated and purified as previously described (Eshraghi et al., 2010); polyhistidine removed with biotinylated thrombin
As to B1, the Kd in test [1] is 650 ± 100 nM; in test [2], 480 ± 100 nM. Also, the results for the “first concentration of titrant yielding detectable signal above background” value in test [1] and in test [2] were 0.31 µM and 0.15 µM, respectively.

B2: unlabeled Cj-CdtA with the polyhistidine tag removed (natural protein)
chain: CSSKFENVNPLGRSFGEFEDTDPLKLGLEPTFPTNQEIPSLISGADLVPITPITPPLTRTSNSANNNAANGINPRFKDEAFNDVLIFENRPAVSDFLTILGPSGAALTVWALAQGNWIWGYTLIDSKGFGDARVWQLLLYPNDFAMIKNAKTNTCLNAYGNGIVHYPCDASNHAQMWKLIPMSNTAVQIKNLGNGKCIQAPITNLYGDFHKVFKIFTVECAKKDNFDQQWFLTTPPFTAKPLYRQGEVR
notes: as for B1
On to B2, for which, in test [2], the Kd is over 20000 nM and the “first concentration of titrant yielding detectable signal above background” value worked out at 2 µM.
